The text below walks through data of IntAct's records for PubMed 26751287.

First the molecules themselves.
B1: Transmembrane glycoprotein NMB (Homo sapiens), Q14956-1 (parent)
chain: MECLYYFLGFLLLAARLPLDAAKRFHDVLGNERPSAYMREHNQLNGWSSDENDWNEKLYPVWKRGDMRWKNSWKGGRVQAVLTSDSPALVGSNITFAVNLIFPRCQKEDANGNIVYEKNCRNEAGLSADPYVYNWTAWSEDSDGENGTGQSHHNVFPDGKPFPHHPGWRRWNFIYVFHTLGQYFQKLGRCSVRVSVNTANVTLGPQLMEVTVYRRHGRAYVPIAQVKDVYVVTDQIPVFVTMFQKNDRNSSDETFLKDLPIMFDVLIHDPSHFLNYSTINYKWSFGDNTGLFVSTNHTVNHTYVLNGTFSLNLTVKAAAPGPCPPPPPPPRPSKPTPSLATTLKSYDSNTPGPAGDNPLELSRIPDENCQINRYGHFQATITIVEGILEVNIIQMTDVLMPVPWPESSLIDFVVTCQGSIPTEVCTIISDPTCEITQNTVCSPVDVDEMCLLTVRRTFNGSGTYCVNLTLGDDTSLALTSTLISVPDRDPASPLRMANSALISVGCLAIFVTVISLLVYKKHKEYNPIENSPGNVVRSKGLSVFLNRAKAVFFPGNQEKDPLLKNQEFKGVS

The variants in the assay derive from B1. Particulars: with ptk6_human PTK6, Q13882.
Consider MECLYYFLGFLLLAARLPLDAAKRFHDVLGNERPSAYMREHNQLNGWSSDENDWNEKLYPVWKRGDMRWKNSWKGGRVQAVLTSDSPALVGSNITFAVNLIFPRCQKEDANGNIVYEKNCRNEAGLSADPYVYNWTAWSEDSDGENGTGQSHHNVFPDGKPFPHHPGWRRWNFIYVFHTLGQYFQKLGRCSVRVSVNTANVTLGPQLMEVTVYRRHGRAYVPIAQVKDVYVVTDQIPVFVTMFQKNDRNSSDETFLKDLPIMFDVLIHDPSHFLNYSTINYKWSFGDNTGLFVSTNHTVNHTYVLNGTFSLNLTVKAAAPGPCPPPPPPPRPSKPTPSLATTLKSYDSNTPGPAGDNPLELSRIPDENCQINRYGHFQATITIVEGILEVNIIQMTDVLMPVPWPESSLIDFVVTCQGSIPTEVCTIISDPTCEITQNTVCSPVDVDEMCLLTVRRTFNGSGTYCVNLTLGDDTSLALTSTLISVPDRDPASPLRMANSALISVGCLAIFVTVISLLVYKKHKEFNPIENSPGNVVRSKGLSVFLNRAKAVFFPGNQEKDPLLKNQEFKGVS [Y525F], for which the “effect of a mutation on the interaction” value is “disrupting interaction strength”.
